From US20250289871A1 (AstraZeneca / MedImmune, published 2025)
Substitutions are numbered along the chain they refer to.

B1: RQ43-GL-H-LO1 (TM-YTE) (antibody, V domains shown)
VH: EVQLVESGGGLVQPGRSLRLSCAASGFPFDDYAIHWVRLAPGKGLEWVSSISWDSGSIGYADSVKGRFTISRDNAKNSLYLQMNSLRAEDTALYYCAKGAFPGYSSGWYYGLEVWGQGTTVTVSS
VL: QSVVTQPPSASGSLGQSVTISCTGTSSDVGGYNYVSWYQQHPGKAPKLMIFEVSKRPSGVPDRFSGSKSGNTASLTVSGLQAEDEADYYCSSYAGNKGVFGGGTKLTVL
B2: RQ33 (TM-YTE) (antibody, V domains shown)
VH: QVQLQESGPGLVKPSETLSLTCTVFGGSITSSNHYWVWIRQPPGKGLEWIGSMYYSGSTAYNPSLTNRVTISVDTSKNQFSLKLSSVTAADTAVYYCARQIGPKRPSQVADWFDPWGQGTLVTVSS
VL: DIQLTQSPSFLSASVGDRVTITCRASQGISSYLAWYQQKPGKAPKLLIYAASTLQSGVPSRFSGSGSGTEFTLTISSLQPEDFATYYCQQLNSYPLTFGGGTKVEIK
B3: RQ40 (TM-YTE) (antibody, V domains shown)
VH: EVQLVESGAEVKKPGSSVKVSCKASGGTFSSYAINWVRQAPGQGLEWMGGIIPIFRTPHYAQKFQGRVTITADESTGTAYMELSSLRSEDTAVYYCASPSCGGDCPQYLKSSKLDWYFDLWGRGTLVTVSS
VL: VIWMTQSPGTLSLSPGERATLSCRASQSVSSTYLAWYQQKPGQAPRLLIYGASSRATGIPDRFSGSGSGTDFTLTISRLEPEDFAVYYCQHYGSSPLTFGQGTRLEIK
B4: RQ41 (TM-YTE) (antibody, V domains shown)
VH: EVQLVESGGGLIQPGGSLRLSCAASEIIVSRNYMSWVRQAPGKGLEWVSVIYSGGSTFYADSVKGRFTISRDNSKNTLYLQMNSLRAEDTAVYYCARDLDVVGGTDYWGQGTLVTVSS
VL: not shown
B5: RQ43 (TM-YTE) (antibody, V domains shown)
VH: B1 VH with V5L, S7T, E113D, T119A
VL: B1 VL

Columns and labels:
[1] = target: SARS-CoV-2 Alpha spike protein (authentic virus) (SARS-CoV-2, UniProt P0DTC2 14-1273); test: cell-based or functional assay
[2] = target: SARS-CoV-2 BA.2 spike protein (authentic virus) (SARS-CoV-2, UniProt P0DTC2 14-1273); test: cell-based or functional assay
[3] = target: SARS-CoV-2 BA.1 spike protein (authentic virus) (SARS-CoV-2, UniProt P0DTC2 14-1273); test: cell-based or functional assay
[4] = target: SARS-CoV-2 BA.1.1 spike protein (authentic virus) (SARS-CoV-2, UniProt P0DTC2 14-1273); test: cell-based or functional assay
[5] = target: SARS-CoV-2 D614G spike protein (authentic virus) (SARS-CoV-2, UniProt P0DTC2 14-1273); test: cell-based or functional assay
[6] = target: SARS-CoV-2 BA.5 spike protein (authentic virus) (SARS-CoV-2, UniProt P0DTC2 14-1273); test: cell-based or functional assay
[7] = target: T1, SARS-CoV-2 BA.2.12.1 spike protein (authentic virus) (SARS-CoV-2, UniProt P0DTC2 14-1273); test: cell-based or functional assay
[8] = target: BA.2.12.1 spike protein (pseudovirus) (SARS-CoV-2); test: cell-based or functional assay
[9] = target: T1, SARS-CoV-2 BA.2.12.1 spike protein …; test: cell-based or functional assay; remark: listed apart in the source
[10] = target: SARS-CoV-2 spike RBD point mutant F486A (SARS-CoV-2, UniProt P0DTC2 334-526)
[11] = target: SARS-CoV-2 spike RBD point mutant K444A (SARS-CoV-2, UniProt P0DTC2 334-526)
[12] = target: Delta spike protein (pseudovirus) (SARS-CoV-2); test: cell-based or functional assay
[13] = target: BA.2 spike protein (pseudovirus) (SARS-CoV-2); test: cell-based or functional assay
[14] = target: BA1.1 spike protein (pseudovirus) (SARS-CoV-2); test: cell-based or functional assay
[15] = target: D614G spike protein (pseudovirus) (SARS-CoV-2); test: cell-based or functional assay
[16] = target: Omicron (BA.1) spike protein (pseudovirus) (SARS-CoV-2); test: cell-based or functional assay

| Binder | Authentic Virus Neutralization IC50 [1] [ng/mL] | Authentic Virus Neutralization IC50 [2] [ng/mL] | Authentic Virus Neutralization IC50 [3] [ng/mL] | Authentic Virus Neutralization IC50 [4] [ng/mL] | Authentic Virus Neutralization IC50 [5] [ng/mL] | Authentic Virus Neutralization IC50 [6] [ng/mL] | Authentic Virus Neutralization IC50 [7] [ng/mL] | IC50 (read off the curve), pseudovirus with BA.2.12.1 spike [8] [ng/mL] | IC50 (read off the curve), FRNT, authentic BA.2.12.1 virus [9] [ng/mL] | Kd [10] [nM] | Kd [11] [nM] | EC50, pseudovirus neutralization [12] [ng/mL] | EC50, pseudovirus neutralization [13] [ng/mL] | EC50, pseudovirus neutralization [14] [ng/mL] | EC50, pseudovirus neutralization [15] [ng/mL] | EC50, pseudovirus neutralization [16] [ng/mL] |
| --- | --- | --- | --- | --- | --- | --- | --- | --- | --- | --- | --- | --- | --- | --- | --- | --- |
| B1 | 60 | 31 | 11 | 7 | 99 | 17 | 28 | ~8 | – | – | – | – | – | – | – | – |
| B2 | – | – | – | – | – | – | – | ~50 | ~500 | 3.28 | 3.13 | 205 | 79.7 | 3.1 | 191 | 4.5 |
| B3 | – | – | – | – | – | – | – | – | – | 47.1 | < 0.001 | 11.2 | 7 | 4.2 | 9.9 | 6.4 |
| B4 | – | – | – | – | – | – | – | – | – | – | – | 18.2 | 12.6 | 3.9 | 11 | 6.2 |
| B5 | – | – | – | – | – | – | – | – | – | < 0.001 | < 0.001 | 25.9 | 10.5 | 6 | 15.8 | 7.8 |
